Literature values in paper PMC8315802.
Where two headings read alike, the source gives them in different places.

Key:
[1] = molecular target: actin filament (Oryctolagus cuniculus) (UniProt P68135)
[2] = molecular target: actin filament (Oryctolagus cuniculus) (UniProt P68135); remark: listed apart in the source
[3] = molecular target: actin filament (Oryctolagus cuniculus) (UniProt P68135); remark: listed apart in the source

With Rng2 1-189 (from UniProt O14188) as the substance, how does the Kd [1] read?
Its Kd is 900 nM.

Which Kd [2] does the source give for utrophin CHD (from UniProt P46939) here?
The Kd was 1500 nM.

For α-actinin CHD (from UniProt P05094), which Kd [3] is on record?
Its Kd is 4700 nM.
